# Test results as given in patent US20160040149A1, “Compositions Having Dicamba Decarboxylase Activity and Methods of Use” (priority 2013, published 2016).
# Test: Saturation mutagenesis of SEQ ID NO:109: dicamba decarboxylation activity of point mutants (CO2 released), fold of backbone (Tables 7, 8, Megatable 1)
# Conditions: decarboxylation activity (CO2 released) of point mutant vs unmutated backbone protein; backbone SEQ ID NO: 109
row,Molecule,Fold Activity
1,"92 (protein, listed as Chitinophaga pinensis) MARIVTLEEHVSFPEMTALLPEEILKNRKQSGAALQMQEKLADITGERLTSMKAAGISMQVLSVENTDVYLLPDSLAPAFAAKYNDLLADKISSHSDAFAAFAMLPMTVPEAAADELERAVKTHGFCGAMIKGLINGVFLDAPKFAPVFACAEKLGVPLYIHPGIPPKEVIDAYYSNVGDTKGPNEAIACYGWGWHSETAIHILRLLAAGIFDKYPQLNIIIGHMGEMLPMMWERSNRVFQPGNNGKNQRTLIETFRKQLYITTSGIFTQPPLQIAIDTIGIDNILFSIDYPFSSNQMGIDFLTKAALPAEQLAKMAHGNADRILKF",1.7 fold
2,"93 (protein, listed as Mucilaginibacter paludis) MAKYGKHITINKNMRIVTLEEHISFPEMADQIPKAALGSFGRSEAMQRIAPKLADITGERLKSMDANGISMQVLSVDSSGVNLLSPQQGPAFATQYNDLIANRIAGFEKRFTAFAHLPMTAPFAAADELERAVKEHHFCGAMIRGLTGDQFLDHPQFAPIFERAQKLDVPIYLHPGLPPKGVADIYYSGLPNYSGMAEALACYGWGWHSETALHVLRLLFSGIFDQYPKLKLVIGHMGEMLPMMMARSEKAFKPGNGGANVRTLTDTFRSQVYLTTSGFFTQPPLKIALDTFGIDHVMFSVDYPFSTNEMGIEFLNEIDLPDEEVARIAHGNADKLLNLKA",1.6 fold
3,"5 (protein, listed as Staphylococcus aureus) MAQNNMEANQMKSITFEEHYVIEDIQKETMNAISADPKGVPMKVMLEGLEKKTGFTNADELSHHDERIQFMNNQDVQIQVLSYGNGSPSNLVGQKAIELCQKANDQLANYIAQYPNRFVGFATLPINEPEAAAREFERCINDLGFKGALIMGRAQDGFLDQDKYDIIFKTAENLGVPIYLHPAPVNSDIYQSYYKGNYPEVTAATFACFGYGWHIDVGIHAIHLVLSGIFDRYPKLNMIIGHWGEFIPFFLERMDEALFAEHLNHPVSYYFKNNFYITPSGMLTKPQFDLVKKEAGIDRILYAADYPYIEPEKLGVFLDELGLTDEEKEKISYTNGAKLLGLSSNN",0.8 fold
4,"94 (protein, listed as Bacillus thuringiensis) MANRGDSNMKSLVGVIMGSTSDWETMKYACDILDELNIPYEKKVVSAHRTPDYMFEYAETARERGLKVIIAGAGGAAHLPGMVAAKTNLPVIGVPVQSKALNGLDSLLSIVQMPGGVPVATVAIGKAGSTNAGLLAAQILGSFHDDIHDALELRREAIEKDVREGSELV",1.5 fold
5,"91 (protein, listed as Botryotinia fuckeliana) MASFVCNFGKAALATLLLTPSISAADYTPQETVLNSGRPTFYDASTSIPGKIALEEHVGNDLLNGLYTVPYYPNTNEPQYSDSVYIADVGEKMLDIPSRIANMDAANISISVLTFGGPGIQGVFNATYATYAAGYVNDYLYKNYKNNANYTGRFEFWCSNALQEPSKAATELERCVKELGGVGSFVGGYTNNGGINGTANDIVYLDDPSMEPFLEKVVELDVPIYLHPRMPAPSQLLSVKGYEFLGSSPWGFSSETGAHALRLMVSGTLDKYPTLKIVLGHCGEGLPFFLPRIDQRLRHFKKELFNNTLTMEEYWLRNFYVTTAGVQDAGTLVDTIKRTGEDRVMFSVDYPFEDTVEIAGWFDRLEMNTLTKTKLAYENAKALLKLTCYVDAEKRPRIFNKHHVDDIIKHTHSPCIWTLFH",1.6 fold
6,"90 (protein, Pyrenophora tritici-repentis) MAATIDRVLYLGNATQRRYTSATVSVPRIFGKVALEEHVGTSIWAKYNLTPPANAVVGVLNRPPTLPNTLDTIARLDDINGRLSSMNHSGIGYVIVSLSSPGIQGVHDTALAIKFSTDINDELYLKYANAYPDKFAFFATVPMQDPVAAASELERAVSLLGAKGAAINGYTDIGPPGNSTTRYLDDPINAPFWSKVAALNVPIYLHPRAPPPSQQLVYNYPNNSLSAYPGLVTGGFAYGAETAVHALRLMLSGLFDTHPNIQIILGHAAEGLPFLIHRSDTQLAAEVPGTNGPYKRPLRYYLRNNFYATLSGVRRLSTTQCTLAEMGEERVLFSVDYPFQSNEDAADWFDGVEGMSVETKRKVARGNARRLFNLTVDLDERQIDGDFM",1.7 fold
